Results on three substances are retold here after article PMC6985235.

The target in experiment [1] is binding immunoglobulin protein (TvBip). In words: co-immunoprecipitation with anti-HA antibody, Western blotting. Particulars: three experiments.
The next experiment has as its target Myb3 (endogenous). The description is as above. Particulars: for ratio to parent: three experiments.
For experiment [2], the target named is hydrogenosomal heat shock protein 70 (HdHSP70). Described as above. Particulars: total lysate, three experiments.
The target of experiment [3] is heat shock protein 72 (TvHSP72). Described as above. Particulars: three experiments.
For another experiment, the target named is TvMyb3IPhmw. Described as above. Particulars: P100 fraction; three experiments.
Experiment [4] has as its target His-TvCyP2 (Trichomonas vaginalis) (UniProt A2DLL4). The experiment can be described thus: ITC. On the technique in general: Isothermal titration calorimetry measures the heat released or taken up as one component is titrated into another.

As to HA-TvCyP1 (from UniProt A2DT06) R63A, the ratio to parent in experiment [1] (total lysate) amounted to 1; with Myb3 (endogenous) (total lysate, ** p < 0.01) it was 0.6; in experiment [2] (** p < 0.01) it was 0.1; in experiment [3] (total lysate, ** p < 0.01) it was 0.5.

Take HA-TvCyP2 (from UniProt A2DLL4) R75A: the ratio to parent in experiment [1] (P15 fraction) was 1; in experiment [1] (P100 fraction) it was 1; in experiment [1] (total lysate, ** p < 0.01), 0; in the experiment with TvMyb3IPhmw it was 1; with Myb3 (endogenous) (P15 fraction, * p < 0.05), 0.7; with Myb3 (endogenous) (P100 fraction, ** p < 0.01), 0.5. Besides, the ratio to parent turned out to be 0.4 in the experiment with Myb3 (endogenous) (total lysate, ** p < 0.01); 0.9 in experiment [2]; 0.7 in experiment [3] (P100 fraction, * p < 0.05); 0.6 in experiment [3] (S100 fraction, ** p < 0.01); 1.6 in experiment [3] (total lysate, ** p < 0.01). In the experiment with Myb3 (endogenous), this substance yielded an other: relative signal intensity of 0.1.

For the substance His-Myb3^53–180 (domain or fragment), the Kd in experiment [4] was 55 µM. This counts as double-digit micromolar.

The term Kd denotes the equilibrium constant for the complex coming apart. Low values mean a tighter complex, high ones a looser complex.
